In publication PMC13065467, “Assembly and phosphoregulatory mechanisms of the budding yeast outer kinetochore KMN complex” (The Journal of Cell Biology, 2026):

Tests used:
[1] = test system: K^HB-RWDM^Dsn1Δ257_Mis12-3A; experiment: ITC, Dsn1 peptide titrated into Mis12-3A mutant complex; type: binding, S. cerevisiae; conditions: ratio of ITC KD values, Mis12-3A mutant complex versus K^HB-RWDM^Dsn1Δ257
Description: Dsn1^228–254 and Dsn1^228–254,S240E,S250E peptides were synthesized by Alta BioScience with N-terminal acetylation and C-terminal GSAW extension and amidation. The final sequence of Dsn1^228–254 was […], and Dsn1^228–254,S240E,S250E was […]. All protein complexes and peptides used in a given experiment were dialyzed for a minimum of 16 h and/or buffer-exchanged by size-exclusion chromatography into the same batch of ITC buffer (25 mM HEPES, pH 7.5, 100 mM NaCl, 1 mM TCEP). All experiments were performed using an Auto-iTC200 instrument (Malvern Instruments) at 25°C. In each experiment, 360 μl of protein complex was pipetted into the calorimeter cell. The protein complex loaded into the calorimeter cell contained Knl1c:Mis12c^Mtw1c with Knl1^Spc105_HB-RWD and Dsn1^Δ1–257 and either wild-type Mis12^Mtw1 (K^HB-RWDM ^Dsn1Δ257) or Mis12^Mtw1_E69A,E73A,E77A mutant (K^HB-RWDM ^Dsn1Δ257_Mis12-3A). Wild-type constructs of all other Knl1c and Mis12c^Mtw1c subunits were included. Titration of either the Dsn1^228–254 or Dsn1^228-254,S240E,S250E peptide into the cell was then performed by an initial injection of 0.5 μl, followed by 19 further injections of 2.0 μl each. […] Titrations were performed in duplicate or triplicate, and reported KD and n values were calculated as an average from all replicate results.

[2] = test system: K^HB-RWDM^Dsn1Δ257_Δhead1; experiment: ITC, Dsn1 peptide titrated into head 1-deleted complex; type: binding, S. cerevisiae; conditions: 25°C, 25 mM HEPES pH 7.5, 100 mM NaCl, 1 mM TCEP, syringe 0.3 mM, cell 0.025 mM, two experiments
[3] = molecular target: T1, Knl1c:Mis12c^Mtw1c complex K^HB-RWDM^Dsn1Δ257 (Knl1^Spc105 residues 1–444 and Dsn1 residues 1–257 deleted) (S. cerevisiae, UniProt P53148 445-917; Q04431 1-385; P40568 258-576; P39731 1-289; P47149 1-201; …); experiment: SEC; 4 μM Knl1c:Mis12c^Mtw1c complex mixed with 4 μM CENP-C^Mif2_1-63 or CENP-QU in KMN buffer, 30 min on ice; Superose 6 3.2/300 in 20 mM HEPES pH 7.5, 150 mM NaCl, 1 mM TCEP; fractions on SDS-PAGE; conditions: both partners purified
T1 construct: Knl1^Spc105_HB-RWD: Knl1^Spc105, S. cerevisiae S288c, residues 445-917; ZWINT^Kre28, S. cerevisiae S288c; no truncation stated; Mis12^Mtw1, S. cerevisiae S288c; wild-type, no truncation stated; Nnf1, S. cerevisiae S288c; Nsl1, S. cerevisiae S288c; source: High-5 insect cells (two baculoviruses), purified (Strep-Tactin, SEC); copies: + + + + +

[4] = molecular target: T2, Knl1c:Mis12c^Mtw1c complex K^HB-RWDM^Dsn1Δ226-2E (Dsn1 residues 1–226 deleted, with S240E and S250E … (S. cerevisiae, UniProt P53148 445-917; Q04431 1-385; P40568 227-576; P39731 1-289; P47149 1-201; …, S240E | S250E); experiment: as above; conditions: both partners purified
T2 construct: Knl1^Spc105_HB-RWD: Knl1^Spc105, S. cerevisiae S288c, residues 445-917; ZWINT^Kre28, S. cerevisiae S288c; no truncation stated; Dsn1^Δ1–226,S240E,S250E: Dsn1, S. cerevisiae S288c, residues 1-226 deleted, phosphomimetic mutations; Mis12^Mtw1, S. cerevisiae S288c; Nnf1, S. cerevisiae S288c; Nsl1, S. cerevisiae S288c; also called K^HB-RWDM^Dsn1Δ226,S240E,S250E; source: High-5 insect cells …

[5] = molecular target: T3, Knl1c:Mis12c^Mtw1c complex K^HB-RWDM^2E (full-length Dsn1 with S240E and S250E phosphomimetic mutations) (S. cerevisiae, UniProt P53148 445-917; Q04431 1-385; P40568 1-576; P39731 1-289; P47149 1-201; Q12143 …, S240E | S250E); experiment: as above; conditions: both partners purified
T3 construct: Knl1^Spc105_HB-RWD: Knl1^Spc105, S. cerevisiae S288c, residues 445-917; ZWINT^Kre28, S. cerevisiae S288c; no truncation stated; Dsn1^S240E,S250E: full-length Dsn1, S. cerevisiae S288c, with phosphomimetic mutations; Mis12^Mtw1, S. cerevisiae S288c; Nnf1, S. cerevisiae S288c; Nsl1, S. cerevisiae S288c; also called KM^2E; K^HB-RWDM^S240E,S250E; source: High-5 insect cells (baculovirus), purified …

K^HB-RWDM^Dsn1Δ257 = experiment: analytical SEC reconstitution with K^HB-RWDM^Dsn1Δ257; type: binding, S. cerevisiae; conditions: Superose 6 3.2/300, 4 μM each, pH 7.5, Dsn1 residues 1–257 deleted
Description: (§1) To test the effect of deleting or mutating regions of the Dsn1 N-terminal disordered domain on Mis12c^Mtw1c auto-inhibition, 4 μM concentrations of Knl1c:Mis12c^Mtw1c complexes containing Knl1^Spc105_HB-RWD and different Dsn1 constructs were mixed with 4 μM concentrations of either CENP-C^Mif2_1-63 or CENP-QU in KMN buffer. Knl1c:Mis12c^Mtw1c complexes used contained one of the following Dsn1 constructs: K^HB-RWDM, contained full-length and wild-type Dsn1; K^HB-RWDM^S240E,S250E, contained Dsn1^S240E,250E; K^HB-RWDM^Dsn1Δ226, contained Dsn1^Δ1–226; K^HB-RWDM^Dsn1Δ257, contained Dsn1^Δ1–257; K^HB-RWDM^Dsn1Δ226,S240E,S250E, contained Dsn1^Δ1–226,S240E,S250E. Protein mixtures were incubated together on ice for 30 min to attempt to reconstitute a protein complex. 100 μl of individual proteins or protein complexes or reconstitution mixtures was loaded onto a Superose 6 3.2/300 size-exclusion chromatography column (Cytiva) equilibrated in (20 mM HEPES, pH 7.5, 150 mM NaCl, 1 mM TCEP), and 100 μl eluate fractions were collected. Aliquots of each indicated eluate fraction were mixed 1:1 (volume/volume) with 2xLDS-PAGE loading buffer supplied by Thermo Fisher Scientific, supplemented with DTT, boiled for 3 min at 95°C, and analyzed by SDS-PAGE.

KM2E = experiment: SPR, binding to KM2E (review history, removed from manuscript); set-up: species or system S. cerevisiae; conditions: data removed from manuscript, review history only
K^HB-RWDM^Dsn1Δ226-2E = experiment: analytical SEC reconstitution with K^HB-RWDM^Dsn1Δ226-2E; type: binding, S. cerevisiae; conditions: Superose 6 3.2/300, 4 μM each, pH 7.5, Dsn1 Δ1–226,S240E,S250E
Description: as §1

K^HB-RWDM^2E = experiment: analytical SEC reconstitution with K^HB-RWDM^2E; type: binding, S. cerevisiae; conditions: Superose 6 3.2/300, 4 μM each, pH 7.5, full-length Dsn1 S240E,S250E
Description: as §1

K^HB-RWDM = experiment: analytical SEC reconstitution with K^HB-RWDM; type: binding, S. cerevisiae; conditions: Superose 6 3.2/300, 4 μM each, 20 mM HEPES pH 7.5, 150 mM NaCl, 1 mM TCEP, 30 min on ice
Description: as §1

K^HB-RWDM^Dsn1Δ226 = experiment: analytical SEC reconstitution with K^HB-RWDM^Dsn1Δ226; type: binding, S. cerevisiae; conditions: Superose 6 3.2/300, 4 μM each, pH 7.5, Dsn1 residues 1–226 deleted
Description: as §1

[6] = molecular target: Knl1c:Mis12c^Mtw1c complex K^HB-RWDM^Dsn1Δ257_Mis12-3A (K^HB-RWDM^Dsn1Δ257 containing mutant … (S. cerevisiae, UniProt P53148 445-917)); Q04431 1-385; P40568 258-576; P39731 1-289; P47149 1-201; …, E69A | E73A | E77A (construct name; the text of the results says Asp77)); experiment: ITC

Molecule: Ac-PHYIQRTRERKKSIGSQRGRRLSMLASGSAW-NH2 [Dsn1^228-254]
- increase of KD versus K^HB-RWDM^Dsn1Δ257 [1]: threefold
- binding (ITC) [2]: did not bind

B1: CENP-C^Mif2 residues 1–63 (CENP-C^Mif2_1–63) (domain or fragment, S. cerevisiae, UniProt P35201 1-63, looked up)
chain: MDYMKLGLKSRKTGIDVKQDIPKDEYSMENIDDFFKDDETSLISMRRKSRRKSSLFLPSTLNG
notes: CENP-C^Mif2, S. cerevisiae S288c, residues 1-63; source: E. coli BL-21 CodonPlus-RIL, purified (HisTrap, Ulp1 cleavage, reverse IMAC, Resource S, SEC); not shown: 6xHis-SUMO, N-terminal, cleaved
- binding result [3]: binds
- binding result [4]: binds
- binding result [5]: binds

B2: CENP-C^Mif2_1-63: recombinant N-terminal fragment of S. cerevisiae CENP-C^Mif2 comprising residues 1–63 (protein)
chain: MDYMKLGLKSRKTGIDVKQDIPKDEYSMENIDDFFKDDETSLISMRRKSRRKSSLFLPSTLNG
modifications: left off: 6xHis-SUMO, N-terminal, cleaved
- binding by SEC (K^HB-RWDM^Dsn1Δ257): did interact
- Kd (KM2E): 0.26 µM
- binding by SEC (K^HB-RWDM^Dsn1Δ226-2E): sufficient to abolish Mis12c^Mtw1c auto-inhibition
- binding by SEC (K^HB-RWDM^2E): sufficient to abolish Mis12c^Mtw1c auto-inhibition
- binding by SEC (K^HB-RWDM^2E; listed as CENP-C (residues 1-63)): bound KM2E
- binding by SEC (K^HB-RWDM; full-length wild-type Dsn1): did not bind
- binding by SEC (K^HB-RWDM; full-length wild-type Dsn1, listed as CENP-C N-terminus (residues 1-63)): did not
- binding by SEC (K^HB-RWDM^Dsn1Δ226): did not bind

Molecule: Ac-PHYIQRTRERKKSIGSQRGRRLSMLASGSAW-NH2 [Dsn1^228–254 peptide]
- Kd [6]: 4.06 µM
